Data set [1] deals with the molecule itself. The data set can be described thus: mass photometry; TwoMP mass photometer; 0.5 µl of sample (500 nM stock, 4 mM sodium DT) added to 19.5 µl anaerobic measurement buffer (150 mM NaCl, 50 mM Tris pH 7.8, 10% glycerol, 10 mM sodium DT); each component measured alone.
In data set [2] the target is T1, Mar(DK)2, catalytic component of the methylthio-alkane reductase from Rhodospirillum rubrum (Rhodospirillum rubrum, UniProt Q2RW97 1-511; Q2RW98 1-466).
T1 construct: MarD of Rhodospirillum rubrum, as the chain of m2; MarK of Rhodospirillum rubrum, as the chain of m3; Heterotetramer by mass photometry (227 kDa measured, 217 kDa theoretical); holds two P-clusters and two [Fe8S9C]-clusters; No tag cleavage is described; The deposited model (MarDK2H2) holds only one of the two MarD copies; copies: 2 + 2
T1 sequence 1: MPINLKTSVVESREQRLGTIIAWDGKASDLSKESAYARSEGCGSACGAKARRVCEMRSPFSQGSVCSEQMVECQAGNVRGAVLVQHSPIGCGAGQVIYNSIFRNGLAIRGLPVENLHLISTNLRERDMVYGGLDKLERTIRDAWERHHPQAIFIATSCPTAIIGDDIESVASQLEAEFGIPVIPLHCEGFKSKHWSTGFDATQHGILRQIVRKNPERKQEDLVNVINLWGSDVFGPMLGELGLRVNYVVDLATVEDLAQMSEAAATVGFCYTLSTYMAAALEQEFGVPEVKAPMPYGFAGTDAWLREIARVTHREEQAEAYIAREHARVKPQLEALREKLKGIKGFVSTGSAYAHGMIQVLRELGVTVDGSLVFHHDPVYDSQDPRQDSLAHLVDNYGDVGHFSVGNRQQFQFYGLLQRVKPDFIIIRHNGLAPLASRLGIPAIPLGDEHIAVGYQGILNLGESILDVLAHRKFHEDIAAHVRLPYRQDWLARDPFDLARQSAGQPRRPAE
T1 sequence 2: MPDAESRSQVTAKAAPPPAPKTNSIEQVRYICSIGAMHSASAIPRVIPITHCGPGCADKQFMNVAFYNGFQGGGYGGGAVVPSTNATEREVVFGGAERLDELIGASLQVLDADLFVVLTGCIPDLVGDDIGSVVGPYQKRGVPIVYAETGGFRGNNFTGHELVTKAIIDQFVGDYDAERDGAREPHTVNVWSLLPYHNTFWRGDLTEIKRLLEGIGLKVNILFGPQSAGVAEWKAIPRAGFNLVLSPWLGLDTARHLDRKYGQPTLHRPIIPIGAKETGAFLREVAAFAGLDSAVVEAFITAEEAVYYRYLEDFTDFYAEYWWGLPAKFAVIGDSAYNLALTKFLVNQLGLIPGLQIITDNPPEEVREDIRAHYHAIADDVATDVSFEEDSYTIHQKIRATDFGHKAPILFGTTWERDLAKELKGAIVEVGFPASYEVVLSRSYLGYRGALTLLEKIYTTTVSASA
Kind of data set: cryo-EM structure; MgADP-AlF3-trapped complex: 22 nmol MarH2 and 3 nmol Mar(DK)2 in 100 mM MOPS pH 7.3, 50 mM Tris pH 7.8, 100 mM NaCl, 5 mM DT, 4 mM NaF, 0.2 mM AlCl3, 8 mM MgCl2, 1 mM ATP, 3 h at 30 °C; isolated by size-exclusion chromatography (HiLoad 26/600 Superdex 200 pg); anaerobic single-particle cryo-EM. As to conditions: both partners purified. (SEC sorts molecules by how far they enter the pores of the column.)

Data set [3] deals with T2, MarD subunit of the methylthio-alkane reductase catalytic component from Rhodospirillum rubrum (Strep-tagged) (Rhodospirillum rubrum, UniProt Q2RW97 1-511).
T2 construct: MarD, subunit of the catalytic component of the methylthio-alkane reductase (marHDK) of Rhodospirillum rubrum; 57.5 kDa with the Strep tag; Holds the [Fe8S9C]-cluster; also called D1; source: Rhodobacter capsulatus MM0422 (plasmid-based, anfH promoter), soluble fraction of the lysate; purified anaerobically with MarK (Strep-Tactin XT 4Flow, PD-10 desalting); not shown: Strep-tag II, C-terminal, …
T2 sequence: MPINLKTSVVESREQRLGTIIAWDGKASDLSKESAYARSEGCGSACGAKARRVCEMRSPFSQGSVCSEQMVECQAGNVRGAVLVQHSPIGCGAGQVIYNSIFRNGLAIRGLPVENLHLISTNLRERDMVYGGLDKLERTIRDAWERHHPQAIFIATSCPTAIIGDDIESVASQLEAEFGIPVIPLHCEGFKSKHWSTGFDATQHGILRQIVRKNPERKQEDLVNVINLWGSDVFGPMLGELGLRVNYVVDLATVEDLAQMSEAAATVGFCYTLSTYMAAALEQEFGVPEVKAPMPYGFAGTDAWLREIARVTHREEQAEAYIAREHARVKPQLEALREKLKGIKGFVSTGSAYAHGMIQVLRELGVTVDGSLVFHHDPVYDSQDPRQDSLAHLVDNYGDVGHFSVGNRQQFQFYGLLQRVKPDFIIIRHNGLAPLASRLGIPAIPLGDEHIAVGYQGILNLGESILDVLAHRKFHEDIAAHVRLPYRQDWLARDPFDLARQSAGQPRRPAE
Kind of data set: mass photometry; TwoMP mass photometer; 0.5 µl of sample (500 nM stock, 4 mM sodium DT) added to 19.5 µl anaerobic measurement buffer (150 mM NaCl, 50 mM Tris pH 7.8, 10% glycerol, 10 mM sodium DT); each component measured alone. As to conditions: both partners purified.

Values joined by “and” are separate entries in the source; they are usually repeats but may differ in a detail not shown here. Equal entries are not always repeated.

B1: MarH2, reductase component of the methylthio-alkane reductase from Rhodospirillum rubrum (His-tagged MarH) (enzyme)
chain: AKSPKQIAIYGKGGIGKSTTTSNISAALAEAGYKVMQFGCDPKSDSTNTLRGGDYIPSVLDLLRENARVDAHEAIFQGFGGIYCVEAGGPAPGVGCAGRGIITAVELLKQQNVFEELDLDYVIFDVLGDVVCGGFAVPIREGIAEHVFTVSSSDFMAIYAANNLFKGIQKYSNAGGALLGGVIANSINTDFHRDIIDDFVARTQTQVVQYVPRSLTVTQAELQGRTTIEAAPESAQAEIYRTLARSIADHTDSKVPTPLNAQELRDWSASWANQLIEIERASQPIPALAS
notes: MarH, reductase subunit of the methylthio-alkane reductase (marHDK) of Rhodospirillum rubrum; 31.9 kDa with the His tag; Homodimer by mass photometry; holds one [Fe4S4]-cluster in the dimer interface; No tag cleavage is described, and the theoretical mass of 64 kDa equals twice the 31.9 kDa of His-tagged MarH; also called H1 and H2; source: Rhodobacter capsulatus MM0422 (plasmid-based, anfH …)
On to B1, for which the stoichiometry N (as a rule, the number of molecules, sites or subunits per partner or assembly) was 2 in data set [1]; 1 and 2 in data set [2].

B2: MarK subunit of the methylthio-alkane reductase catalytic component from Rhodospirillum rubrum (enzyme)
chain: MPDAESRSQVTAKAAPPPAPKTNSIEQVRYICSIGAMHSASAIPRVIPITHCGPGCADKQFMNVAFYNGFQGGGYGGGAVVPSTNATEREVVFGGAERLDELIGASLQVLDADLFVVLTGCIPDLVGDDIGSVVGPYQKRGVPIVYAETGGFRGNNFTGHELVTKAIIDQFVGDYDAERDGAREPHTVNVWSLLPYHNTFWRGDLTEIKRLLEGIGLKVNILFGPQSAGVAEWKAIPRAGFNLVLSPWLGLDTARHLDRKYGQPTLHRPIIPIGAKETGAFLREVAAFAGLDSAVVEAFITAEEAVYYRYLEDFTDFYAEYWWGLPAKFAVIGDSAYNLALTKFLVNQLGLIPGLQIITDNPPEEVREDIRAHYHAIADDVATDVSFEEDSYTIHQKIRATDFGHKAPILFGTTWERDLAKELKGAIVEVGFPASYEVVLSRSYLGYRGALTLLEKIYTTTVSASA
notes: MarK, subunit of the catalytic component of the methylthio-alkane reductase (marHDK) of Rhodospirillum rubrum; 50.8 kDa; No tag is described for MarK; also called K1 and K2; source: Rhodobacter capsulatus MM0422 (plasmid-based, anfH promoter), soluble fraction of the lysate; purified anaerobically with Strep-tagged MarD (Strep-Tactin XT 4Flow, PD-10 desalting)
With B2, in data set [3], the binding result is listed as “binds”.

Source of the values: PMC12552129, “Methylthio-alkane reductases use nitrogenase metalloclusters for carbon–sulfur bond cleavage” (Nature Catalysis, 2025).
